The chains are these.
T1: Recombinant Hyr1 N-terminus fragment (Candida albicans, UniProt Q5AL03 63-350)
T1 construct: the last 288 residues are Hyr1 63-350; Expressed in HEK293F cells, 32 kDa; also called recombinant N-terminus of the Hyr1 protein; purified Hyr1 protein
T1 sequence: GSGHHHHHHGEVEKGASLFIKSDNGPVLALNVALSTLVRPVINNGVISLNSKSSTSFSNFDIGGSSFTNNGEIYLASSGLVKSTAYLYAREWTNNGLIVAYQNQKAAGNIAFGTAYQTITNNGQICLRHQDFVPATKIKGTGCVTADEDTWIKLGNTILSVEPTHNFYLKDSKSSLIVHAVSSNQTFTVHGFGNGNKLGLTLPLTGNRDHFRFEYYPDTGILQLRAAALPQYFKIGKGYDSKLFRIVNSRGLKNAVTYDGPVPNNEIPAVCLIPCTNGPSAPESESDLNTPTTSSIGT

B1: AB123 (antibody, human IgG1, V domains shown)
VH: EVQLLESGGGVVQPGRSLRLSCAASGFTFSNYGMHWVRQAPGKGLEWVAVVWFDGSYKYYTDSVKGRFTISRDNSKSTLYLQMNSLRAEDTAVYYCVSPIMTSAFDIWGPGTMVSVSS
VL: QLVLTQPPSASGSPGQSVTISCTGTSSDVGGSNFVSWYQHHPGKAPKLMIYEVSQRPSGVPDRFSGSKSGNTASLTVSGLQADDEADYYCSSYAGSVVLFGGGTKLTVL
notes: Tested as purified recombinant whole human IgG1 (Expi293F); also called 06-AB-123; anti-Hyr1 mAb
B2: AB124 (antibody, human IgG1, V domains shown)
VH: B1 VH with L5V, F53L, D62G, V93A, S115T
VL: B1 VL
notes: Tested as purified recombinant whole human IgG1 (Expi293F); also called 06-AB-124; anti-Hyr1 mAb
B3: AB121 (antibody, human IgG1, V domains shown)
VH: EVQLVESGGTLVQPGGSLRLSCAASGFTFSDYWMNWVRQAPGKGLEWVANIKQDGSEKYYVDSLRGRVTISRDNAQNSVFLQMHSLSVEDTAVYYCARDGYTFGPATTELDHWGRGTLVSVSS
VL: QLVLTQPPSVSVSPGQTASITCSGDELRNKYTSWYQQKSGQSPVLVIYQDNNRPSGIPERFSGSQSGDTATLTISGTQAVDEADYYCQAWVSQTLVFGGGTKLTVL
notes: Tested as purified recombinant whole human IgG1 (Expi293F); also called 06-AB-121; anti-Hyr1 mAb
B4: AB120 (antibody, human IgG1, V domains shown)
VH: EVQLVQSGGGLVQPGGSLGLSCAASGFIFTSYAMTWVRQAPGKGLEWVSVITGNVGTSYYADSVKGRFTISRDNSKKTVSLQMNSLRAEDTAIYYCVKTRYDFSSGYYFDDWGQGTLVSVSS
VL: DIVMTQSPSSVSASVGDKVTITCRASQGISRWLAWYQQKPGEAPELLIYAASSLQSGVPSRFSGSGSGTDFTLTISSLQPEDFATYYCQQANSFPITFGQGTRLQIK
notes: Tested as purified recombinant whole human IgG1 (Expi293F); also called 06-AB-120; anti-Hyr1 mAb
B5: AB122 (antibody, human IgG1, V domains shown)
VH: EVQLVQSGGGLAQPGRSLRLSCAASGFGFDDFAMHWVRQPPGKGLEWVSGLTWNGGSIDYAGSVRGRFTISRDNAKNSLFLQMNSLRAEDTALYYCAKGLSGGTMAPFDIWGQGTMVSVSS
VL: QAGLTQPPSVSVAPGQTATIPCGGNNIGSKHVHWYQQKPGQAPVAVVYDDSDRPSGVPERFSGSNSGNTATLTISSVEAGDEADYYCQVWDRSSDHFWLFGGGTRLTVL
notes: Tested as purified recombinant whole human IgG1 (Expi293F); also called 06-AB-122; anti-Hyr1 mAb
B6: AB119 (antibody, human IgG1, V domains shown)
VH: QVTLKESGGGLVQPGGSLRLSCVASGFTFRTYWMHWVRQDPGKGLVWVSRLDEVGRLTSYADSVNGRFTISRDNAKNILYLQMNSLRAEDTGVYYCARDLSGSADYWGQGTLVTVSS
VL: DVVLTQSPLFLPVTPGEPASISCRSSQSLLHSRGHTSLHWYLQKPGQSPHLLIYSVFNRASGVPDRFSGSGSGTDFTLKISRVEAEDVGVYYCMQALEPPYTFGQGTKLEIK
notes: Tested as purified recombinant whole human IgG1 (Expi293F); also called 06-AB-119; anti-whole cell mAb
B7: AB131 (antibody, human IgG1, V domains shown)
VH: QVQLVQSGGGVVQPGGSLRLSCAASPFTFKTSILHWVRQAPGKGLEWVSAMSYDGFSKYYADSVKGRLTISRDSSTNTLYLEMNSLRFEDTALYFCAREAYTSGRAGCFNPWGQGVLVSVSS
VL: DIVMTQTPSTQSASVGDRVTITCRASQSISIWLAWYQQKPGKAPKLLIHDASTLESGVPSRFSGSGSGTEFTLTISSLQPDDSATYYCQRYNDYPPTFGPGTKVEIK
notes: Tested as purified recombinant whole human IgG1 (Expi293F); also called 06-AB-131; anti-whole cell mAb
B8: AB132 (antibody, human IgG1, V domains shown)
VH: QVLKESGGGVVQPGGSLRLSCAASPFTFETSILHWVRQAPGKGLEWVSAMSYDGFSKYYADSVKGRLTISRDSSTNTLYLEMNSLRFEDTALYFCAREAYTSGRAGCFDPWGQGVLVSVSS
VL: B7 VL with D1E, T7S
notes: Tested as purified recombinant whole human IgG1 (Expi293F); also called 06-AB-132; anti-whole cell mAb
B9: AB126 (antibody, human IgG1, V domains shown)
VH: EVQLVESGGGLAQPGGSLRLSCEASGFHLAGNAMAWVRQAPGKGLEWVAAIGGSDDRTDYADSVKGRFTISRDKSKNTLSLQMNSLRVEDTAVYYCAKDIWRWAFDYWGQGTLVSVSS
VL: DIVMTQSPATLSLSPGERATLSCWASQYINTYVNWYQHKPGQAPRLLIYDASKRATGIPARFSGSGSGTDFTLTISSLEPEDFAVYYCQQGSNWPLTFGQGTRLEIK
notes: Tested as purified recombinant whole human IgG1 (Expi293F); also called 06-AB-126; anti-whole cell mAb
B10: AB133 (antibody, human IgG1, V domains shown)
VH: EVQLVESGGGLVQPGGSLRVSCAASGFTLNTYWMHWVRQAPGKGLVWVSRINEDGTTISYADSVRGRFTISRDNAENTLYLQMHSLRAEDTGVYYCARDFTGPFDSWGQGTLVSVSS
VL: QSVLTQPPSVSGTPGQRVTISCSGSNSNAGRDYVSWYQQVPGTAPKLLIYKNNQRPSGVPDRFSGSKSGTSASLAISGLRSEDDGDYYCIVWDGSLSGYVFGTGTKVTVL
notes: Tested as purified recombinant whole human IgG1 (Expi293F); also called 06-AB-133; anti-whole cell mAb
B11: AB139 (antibody, human IgG1, V domains shown)
VH: B10 VH
VL: B10 VL with A29V, Q54R
notes: Tested as purified recombinant whole human IgG1 (Expi293F); also called 06-AB-139; anti-whole cell mAb
B12: AB140 (antibody, human IgG1, V domains shown)
VH: B10 VH
VL: B10 VL with S2L, A29V
notes: Tested as purified recombinant whole human IgG1 (Expi293F); also called 06-AB-140; anti-whole cell mAb
B13: AB129 (antibody, human IgG1, V domains shown)
VH: QVQLVESGGGLVQPGGSLRLSCSASQFILSNYWVHWVRQVPGEGLVWVSRINEDGSVTSYADSVKGRFTISRDNAKNTLYLQMNSLRVDDTAVYYCVRDLCGERDDWGQGTLVTVSS
VL: VIWMTQSPLSLPVTPGEAASISCRSSQSLLHRNGRTFFAWYLQKPGQSPQILIYLGSNRAFGVPDRFSGSGSGTDFTLKISRVEAEDVGIYYCMQGLQTPYTFGQGTKLEIK
notes: Tested as purified recombinant whole human IgG1 (Expi293F); also called 06-AB-129; anti-whole cell mAb
B14: AB130 (antibody, human IgG1, V domains shown)
VH: B13 VH with V2L, V5Q, G102W, T114S
VL: B13 VL
notes: Tested as purified recombinant whole human IgG1 (Expi293F); also called 06-AB-130; anti-whole cell mAb
B15: AB118 (antibody, human IgG1, V domains shown)
VH: B13 VH with Q1E, T114S
VL: B13 VL with V1D, W3V, R35K, F61S
notes: Tested as purified recombinant whole human IgG1 (Expi293F); also called 06-AB-118; anti-whole cell mAb
B16: AB127 (antibody, human IgG1, V domains shown)
VH: EVQLVESGGGLVNPGGSLRLSCAASGFTFSNYAMNWVRQAPGKGLEWVSSISRSGDYIYYADSLKGRSTISRDNAKNSLFLQMNSLRAEDSAVYYCARDWGRLGYCSSNNCPDAFDVWGQGTRVSVSS
VL: EIVMTQSPSFVSASVGDRVTITCRASQDISNWLVWYQQKPGKAPKLLIYASSNLQSGVPSRFSGSGSGTDFALTIISLQPEDFATYYCQQENSFPYTFGQGTKLEIK
notes: Tested as purified recombinant whole human IgG1 (Expi293F); also called 06-AB-127; anti-whole cell mAb
B17: AB134 (antibody, human IgG1, V domains shown)
VH: QLQLQESGGGLVQPGGSLRLSCVVSGFTFSSHAMSWVRQAPGKGLEWVSSISISGGDTFYADSVRGRFTIFRDNSKNTVYLQMNSLRAEDTAVYYCATETSPNDYWGQGTLVSVSS
VL: SYELTQPSSLTVSPGGTVTLTCGLSSGAVTSGHYPYWFQQKPGQAPKTLIFDTSRKHSWTPARFSGSLLGGKAALTLSGAQPEDDADYYCLLACNGACVFGGGTKLTVL
notes: Tested as purified recombinant whole human IgG1 (Expi293F); also called 06-AB-134; anti-whole cell mAb
B18: AB135 (antibody, human IgG1, V domains shown)
VH: B17 VH with Q1E, L2V, Q5V, S7T, S113T
VL: B17 VL
notes: Tested as purified recombinant whole human IgG1 (Expi293F); also called 06-AB-135; anti-whole cell mAb

Numbering of substitutions follows the chain as printed.

One assay deals with T1, Recombinant Hyr1 N-terminus fragment. Kind of assay: ELISA, plate coated with recombinant Hyr1 N-terminus, titrated mAb.
For B1, the EC50 – broadly, the concentration needed to bring the measured effect to its halfway point – came out at 0.0533 µg/mL. Same read-out and setting: then B2, with 1.05 µg/mL; and B3, with 0.0765 µg/mL; and B4, with 0.104 µg/mL.

On to B5, for which the 50% effective concentration (EC50) is 0.0496 µg/mL.

The target in another assay is T2, human serum albumin (human, UniProt P02768 25-609).
T2 construct: also called HSA
T2 sequence (P02768 25-609 limits assumed): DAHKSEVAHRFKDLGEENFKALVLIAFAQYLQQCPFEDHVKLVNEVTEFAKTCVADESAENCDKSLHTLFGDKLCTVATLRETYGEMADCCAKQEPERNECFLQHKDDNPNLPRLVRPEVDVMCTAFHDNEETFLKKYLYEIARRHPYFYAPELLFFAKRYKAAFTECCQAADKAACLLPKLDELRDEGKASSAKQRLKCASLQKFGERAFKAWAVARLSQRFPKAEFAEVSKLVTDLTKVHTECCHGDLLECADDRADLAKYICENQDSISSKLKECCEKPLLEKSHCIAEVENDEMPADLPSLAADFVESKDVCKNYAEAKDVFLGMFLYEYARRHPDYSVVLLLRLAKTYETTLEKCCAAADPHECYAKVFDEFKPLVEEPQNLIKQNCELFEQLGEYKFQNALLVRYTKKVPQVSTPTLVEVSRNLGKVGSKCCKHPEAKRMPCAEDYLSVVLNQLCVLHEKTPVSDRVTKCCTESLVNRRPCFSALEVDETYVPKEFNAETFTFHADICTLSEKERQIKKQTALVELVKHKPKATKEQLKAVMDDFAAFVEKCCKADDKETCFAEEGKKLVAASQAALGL
The assay can be described thus: ELISA. Background: In an ELISA, binding on a coated surface is turned into a signal by an enzyme label.
B1: the binding result is “no binding”.

As for B2, the binding result is listed as “no binding”. Same read-out and setting: then B6, with “no binding”. Same read-out and setting: next, B3: “no binding”. Consider B7, for which the binding result is on record as “no binding”. On the same count and under the same terms, next, B8: “no binding”; B4: “no binding”. Still for that read-out and setting: then B9, with “no binding”; and B5, with “no binding”; and B10, with “no binding”. Still for that read-out and setting: then B11, with “no binding”. Regarding B12, the binding result is listed as “no binding”.

Consider B13, for which the binding result was “no binding”. Still for that read-out and setting: next, B14: “no binding”. The same measure, in the same setting: next, B15: “no binding”; B16: “no binding”; B17: “no binding”. The same measure, in the same setting: next, B18: “no binding”.

For the origin of these results see patent publication US20250270300A1 (UNIVERSITY COURT OF THE UNIVERSITY OF ABERDEEN, published 2025).
